# Entries after “also recorded” stand apart in the source; their conditions may differ.
# Columns and labels:
# APP = test: Cell surface expression of APP in HEK 293T cells (surface biotinylation, Western blot); type: cell-based
# Experimental: FIGS. 29A-29K show ApoE CT is still able to regulate APP metabolism when α- or β-secretase is inhibited. […] N=9. FIGS. 29C-29D show ELISA assay and statistical analysis of Western blot assay for the effects of ApoE CT on Aβ production from co-expressed APP and BACE1 in HEK 293T cells treated with 1 μM ADAM10 inhibitor GI254023X; control group received no inhibitor treatment. FIG. 29C: Aβ40 in cell culture medium; FIG. 29D: Aβ40 in cell lysates. N=6. FIGS. 29E-29F show Western blot detection and statistical analysis of the effects of ApoE CT on the production of α-CTF from co-expressed APP in HEK 293T cells treated with 5 μM BACE1 inhibitor AZD3839; the control group received no inhibitor treatment. N=10. FIGS. 29G-29H show Western blot detection and statistical analysis of α-CTF produced by co-expressing APPM596V and GFP or ApoE CT in HEK 293T cells, respectively. N=7. […] Cell surface proteins of HEK 293T cells expressing GFP(−) and ApoE CT(+) were labeled with sulfo-N-hydroxysuccinimide-biotin and isolated with streptavidin-coupled agarose beads.
# [1] = system: APP and BACE1 co-expressed in N2A cells; test: Aβ40 ELISA in N2A cells co-expressing APP and BACE1; type: cell-based, mouse
# Experimental: 48 hours after transfection of HEK 293T cells and N2A cells, or 4.5 days after lentivirus infection of neurons, media and lysates were collected. Aβ40 and Aβ42 in the culture medium and cell lysates were detected by an Aβ ELISA kit as indicated in the protocol. (Invitrogen Technology; KHB3481 for human Aβ40, KHB3441 for human Aβ42 and KMB3481 for mouse Aβ40).
# Data were analyzed by GraphPad Prism software (v6) using unpaired, paired, or one-sample t-tests. Aβ40 and Aβ42 levels were normalized to the corresponding GFP controls. α-CTF levels were normalized to FL-APP and corresponding GFP controls. All data are represented as mean±SEM. Statistical significance was defined as p<0.05. One, two, three and four stars (*) in the graph indicate p-values <0.05, <0.01, <0.001 and <0.0001, respectively.
# [2] = system: HEK 293T cells expressing APP; test: APP-expressing HEK 293T cells co-incubated with culture medium containing secreted ApoE2 or ApoE CT: α-CTF; type: cell-based, human; conditions: vs GFP control
# Experimental: • a) A plasmid expressing the target protein in mammalian cells was constructed, and the protein expression promoter is CAG. • b) The target protein was expressed in HEK 293T cell line. Cells were subcultured one day before transfection, and transfection was performed when the degree of cell adhesion reached 70%-80%. The transfection reagent was lipofectamine2000 (ThermoFisher). • c) 4-6 hours post transfection, the medium were replaced with fresh cell culture medium. • d) 36-48 hours post transfection, the cells were lysed (10% 1M tris-HCl (pH=6.8), 4% SDS, 20% glycerol, 0.01% bromophenol blue), and the protein samples were collected and used for Western blot or stored in a −80° C. freezer. • e) Polyacrylamide gel electrophoresis. Before protein loading, the protein was boiled at 98° C. for 10 min, and then centrifuged at 12000 rpm for 10 min. Electrophoresis: 80V for the upper stacking gel; 120V for the lower separating gel. • f) Protein transfer. […]
molecule,measurement,setting,value
"ApoE CT: C-terminal fragment of ApoE, positions 216-299 of SEQ ID NO: 12; SEQ ID NO: 33 (protein) ARMEEMGSRTRDRLDEVKEQVAEVRAKLEEQAQQIRLQAEAFQARLKSWFEPLVEDMQRQWAGLVEKVQAAVGTSAAPVPSDNH",APP expression on the cell surface,APP,did not alter APP expression on the cell surface
same,total Aβ40,[1],significantly reduced
same,α-CTF produced by APP in cells co-incubated with protein in culture medium,[2],does not significantly alter α-CTF levels; also recorded: does not change the α-CTF; also recorded: does not alter the α-CTF

# — patent publication US20250108100A1, “C-TERMINAL FRAGMENT OF APOLIPOPROTEIN E AND APPLICATION THEREOF IN INHIBITING y-SECRETASE ACTIVITY” (SYNPHATEC (SHANGHAI) BIOPHARMACEUTICAL TECHNOLOGY CO., LTD., priority 2022, published 2025)
